Measurements: CN116472284A (UNIV CALIFORNIA, dated 2023)

Columns and labels:
[1] = target: T1, SARS-CoV-2 spike receptor binding domain (RBD) (SARS-CoV-2, UniProt P0DTC2 328-533)
[2] = target: T1, SARS-CoV-2 spike receptor binding …; assay: SPR, biotinylated RBD on CAP chip

B1: Nb6 (VHH)
VHH: QVQLVESGGGLVQAGGSLRLSCAASGIIFGRNAMGWYRQAPGKERELVAGITRRGSITYYADSVKGRFTISRDNAKNTVYLQMNSLKPEDTAVYYCAADPASPAPGDYWGQGTQVTVSS
notes: also called AeroNab6; NbCOV6
Binder B1 has an EC50 [1] of 190 nM and a Kd [2] of 41 nM.
